Each block holds one binder with its values, some of them ahead of it.
Columns and labels:
FAP on CWR-R1^FAP cells = target: T1, FAP on CWR-R1^FAP cells (human, UniProt Q12884 1-760); assay: flow cytometry on cells; cells incubated with VNAR-Fc (several concentrations, or fixed 100 nM) 1 h on ice, detected with PE-labeled anti-human IgG Fc; KD from logistic fitting of mean fluorescence intensity; conditions: one partner purified
T1 construct: also called CWR-R1-EnzR^FAP
T1 sequence (looked up): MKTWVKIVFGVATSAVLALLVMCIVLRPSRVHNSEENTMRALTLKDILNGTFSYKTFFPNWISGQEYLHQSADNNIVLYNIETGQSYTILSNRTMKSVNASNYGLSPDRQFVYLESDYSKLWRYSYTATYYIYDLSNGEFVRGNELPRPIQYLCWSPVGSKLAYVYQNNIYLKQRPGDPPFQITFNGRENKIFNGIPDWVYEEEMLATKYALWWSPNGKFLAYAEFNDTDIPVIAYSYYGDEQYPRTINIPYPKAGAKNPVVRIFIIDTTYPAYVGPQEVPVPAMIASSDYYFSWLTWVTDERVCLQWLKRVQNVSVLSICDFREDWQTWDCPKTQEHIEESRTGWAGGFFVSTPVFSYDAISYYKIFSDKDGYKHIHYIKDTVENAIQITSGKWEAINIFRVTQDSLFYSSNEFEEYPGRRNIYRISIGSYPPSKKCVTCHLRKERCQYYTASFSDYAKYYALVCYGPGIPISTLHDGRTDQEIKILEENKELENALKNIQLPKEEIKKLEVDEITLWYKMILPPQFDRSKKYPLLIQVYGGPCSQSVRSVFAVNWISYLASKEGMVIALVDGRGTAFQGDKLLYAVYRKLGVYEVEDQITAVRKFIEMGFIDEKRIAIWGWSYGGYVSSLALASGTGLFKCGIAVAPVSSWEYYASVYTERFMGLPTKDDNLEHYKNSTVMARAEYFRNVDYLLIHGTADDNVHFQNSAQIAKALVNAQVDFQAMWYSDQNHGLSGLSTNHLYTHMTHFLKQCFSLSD

FAP on hPrCSC-44 cells = target: T2, FAP on hPrCSC-44 cells (human (endogenous in hPrCSC-44), UniProt Q12884 1-760); assay: as above; conditions: one partner purified
T2 construct: also called endogenous FAP; source: endogenous, hPrCSC-44 immortalized cancer-associated fibroblast cells, on cells
T2 sequence (looked up): T1 sequence (looked up)

[1] = target: T3, recombinant human fibroblast activation protein (human, UniProt Q12884 39-757, biotin (EZ-link NHS-PEG4-biotin)); assay: BLI; biotinylated bait protein (30 nM) loaded on Octet streptavidin (SAX) biosensors; serially diluted VNAR-Fc (300-0.412 nM) as analyte; PBS with 1% BSA; kinetic analysis with a bivalent analyte model; conditions: both partners purified
T3 construct: also called hFAP; human FAP; source: bought: Acro Biosystems
T3 sequence: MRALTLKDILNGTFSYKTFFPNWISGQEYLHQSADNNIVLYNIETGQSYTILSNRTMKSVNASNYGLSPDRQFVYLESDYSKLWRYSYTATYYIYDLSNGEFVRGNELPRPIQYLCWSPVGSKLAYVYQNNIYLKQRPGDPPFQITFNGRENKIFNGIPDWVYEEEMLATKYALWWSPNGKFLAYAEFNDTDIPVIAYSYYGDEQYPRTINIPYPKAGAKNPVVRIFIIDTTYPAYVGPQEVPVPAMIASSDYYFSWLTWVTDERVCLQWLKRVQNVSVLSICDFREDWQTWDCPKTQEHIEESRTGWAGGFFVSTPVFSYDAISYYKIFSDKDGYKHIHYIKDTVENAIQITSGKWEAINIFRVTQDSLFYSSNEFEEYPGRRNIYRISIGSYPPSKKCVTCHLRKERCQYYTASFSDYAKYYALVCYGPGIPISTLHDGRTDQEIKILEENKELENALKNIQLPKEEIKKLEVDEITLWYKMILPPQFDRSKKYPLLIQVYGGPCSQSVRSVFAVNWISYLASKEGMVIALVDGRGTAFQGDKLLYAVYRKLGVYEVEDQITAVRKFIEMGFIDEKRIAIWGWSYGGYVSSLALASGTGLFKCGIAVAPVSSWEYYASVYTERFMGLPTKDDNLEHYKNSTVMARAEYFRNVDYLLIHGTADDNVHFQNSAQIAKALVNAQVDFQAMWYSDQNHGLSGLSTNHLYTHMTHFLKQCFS

- Kd (FAP on CWR-R1^FAP cells): 8.44 nM
- Kd (FAP on hPrCSC-44 cells): 6.03 nM
- Kd [1]: 0.356 nM
B1: NGS2405-Fc (Fc fusion, nurse shark (Ginglymostoma cirratum))
chain: ARVDQTPQTITKETGESLTINCVLRDSNCALSFTYWYRKKSGSTNEESISKGGRYVETVNSGSKSFSLRINDLTVEDSGTYRCNVYVGGGCPHWIDVYGDGTAVTVN
notes: Bivalent human IgG1 Fc fusion (vector TGEX-SCblue); also called VNAR-Fc; source: ExpiCHO-S, transfected, purified (protein A, SEC)

- Kd (FAP on CWR-R1^FAP cells): 12 nM
- Kd (FAP on hPrCSC-44 cells): 15.6 nM
- Kd [1]: 0.0141 nM
B2: H4-Fc (Fc fusion, nurse shark (Ginglymostoma cirratum))
chain: ARVDQTPQTITKETGESLTINCVLRDSNCALSSTYWYRKKSGSTNEESISKGGRYVETVNSGSKSFSLRINDLTVEDSGTYRCNVYVAGMSPCLSWGDVYGDGTAVTVN
notes: Bivalent human IgG1 Fc fusion (vector TGEX-SCblue); also called anti-FAP VNAR H4; VNAR-Fc; source: ExpiCHO-S, transfected, purified (protein A, SEC)

— paper PMC12350670, “The characterization of variable new antigen receptors targeting FAP isolated from a novel immunized library” (Communications Biology, 2025)
